We go through 7 substances from article PMC2865030.

What all share (assay): ITC
(In general: ITC needs no label: the signal is the heat of the interaction.)

Assay [1] deals with Tah1 (TPR-containing protein associated with Hsp90) (S. cerevisiae) (UniProt P25638).
The target in assay [2] is yeast Hsp90 M705V (His-tagged) (yeast) (UniProt P02829).
In assay [3] the target is yeast Hsp90 (wild type, His-tagged) (yeast) (UniProt P02829).

Sequence of Tah1 (TPR-containing protein associated with Hsp90) (S. cerevisiae) (P25638 whole entry): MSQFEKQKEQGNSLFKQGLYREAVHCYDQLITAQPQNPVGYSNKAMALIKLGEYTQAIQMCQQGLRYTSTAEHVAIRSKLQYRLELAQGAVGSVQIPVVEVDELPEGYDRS
Sequence of mouse CHIP (C-terminal of Hsp70-interacting protein) (Q9WUD1 whole entry): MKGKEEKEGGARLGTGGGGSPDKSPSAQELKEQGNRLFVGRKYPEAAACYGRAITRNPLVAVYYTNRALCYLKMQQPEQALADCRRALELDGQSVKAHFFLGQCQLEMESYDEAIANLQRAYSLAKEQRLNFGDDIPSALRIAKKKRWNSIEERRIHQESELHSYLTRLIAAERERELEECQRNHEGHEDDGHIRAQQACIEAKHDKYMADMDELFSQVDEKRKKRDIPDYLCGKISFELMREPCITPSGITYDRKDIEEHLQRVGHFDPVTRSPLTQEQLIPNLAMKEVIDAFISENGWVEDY
Sequence of C-terminal domain of Sti1 (cSti1), His-tagged (domain or fragment) (P15705 133-581): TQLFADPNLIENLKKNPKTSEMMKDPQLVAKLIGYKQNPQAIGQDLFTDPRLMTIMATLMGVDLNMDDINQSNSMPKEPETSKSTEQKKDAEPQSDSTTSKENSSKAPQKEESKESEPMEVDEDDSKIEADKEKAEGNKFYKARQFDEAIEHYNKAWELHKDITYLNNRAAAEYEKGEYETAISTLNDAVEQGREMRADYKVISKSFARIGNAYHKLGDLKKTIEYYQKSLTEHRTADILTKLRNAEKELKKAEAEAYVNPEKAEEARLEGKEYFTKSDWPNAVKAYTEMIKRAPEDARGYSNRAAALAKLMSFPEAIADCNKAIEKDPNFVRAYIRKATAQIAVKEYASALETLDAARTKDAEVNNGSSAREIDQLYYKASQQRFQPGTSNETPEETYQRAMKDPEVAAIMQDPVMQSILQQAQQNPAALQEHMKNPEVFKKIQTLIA

Turning to “… decapeptide (yeast Hsp90 C-terminal decapeptide, Met at -4 replaced by Ala)”, in assay [1], the Kd came out at 3.3 µM and the stoichiometry N came out at 0.89.

In assay [1], “… decapeptide (yeast Hsp90 C-terminal decapeptide, TE replaced by Ala-Ala)” yielded a Kd of 0.75 µM and a stoichiometry N of 0.81.

For “… decapeptide (Ssa1 C-terminal decapeptide, Val at -4 replaced by Met)”, in assay [1], the Kd is 4.2 µM and the stoichiometry N worked out at 0.98.

Consider “mouse CHIP (C-terminal of Hsp70-interacting protein) (from UniProt Q9WUD1 1-304) (natural protein)”, for which, in assay [2], the Kd was 6.7 µM and the stoichiometry N was determined as 1.1. In assay [3], this substance came in with a stoichiometry N of 1.2.

In assay [3], “C-terminal domain of Sti1 (cSti1), His-tagged (domain or fragment)” came in with a stoichiometry N of 0.88.

In assay [1], “… decapeptide (yeast Hsp90 C-terminal decapeptide, Met at -4 replaced by Val)” displayed an equilibrium dissociation constant (Kd) of 9.8 µM and a stoichiometry N of 1.1.

In assay [1], “… decapeptide (Ssa1 C-terminal decapeptide, Val at -4 replaced by Ala)” had a Kd of 14.8 µM and a stoichiometry N of 1.1.

One may read the Kd as the equilibrium constant for the complex coming apart. One may read the stoichiometry N as a count of units in the complex or per binding partner.
